Measured values reported in the supplement of paper PMC6757056.
± gives the standard deviation of the averaged measurements.

B1: library; a variant is named by its letters at N, in order (parent)
chain: GCUGUCACCGGUGCUUGGUACGUUAUAUUCAGCCGGUCUGAUGAGUCUNNNNNNAGACGAAACAGC

Legend:
[1] = variants of: B1; assay: FACS-Seq fitted mean relative fluorescence mCherry/BFP without ligand (log10 relative fluorescence); HEK293T overexpressing SLC46A1; higher = higher reporter protein expression; details: without (6R,S)-folinic acid; ligand present: no
In short: (§1)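 Genomic DNA from 6 mCherry/BFP sort bins was PCR-amplified, barcoded and sequenced on MiSeq. The sorted cells were enriched HEK293T libraries, lentivirally transduced with a ribozyme-switch mCherry reporter and an EF1α-BFP marker, incubated with or without ligand for 48 h. Fluorescence derives from a normal fit to the bin counts. The fit was on log10(mCherry/BFP), and means were scaled to five spiked-in control ribozymes.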

[2] = variants of: B1; assay: normalized RNA/DNA level without ligand (relative to sTRSVctl = 100) (log10 (% of sTRSVctl)); HEK293T overexpressing SLC46A1; higher = less ribozyme self-cleavage, higher mRNA level; details: without (6R,S)-folinic acid; ligand present: no
Method: (§2)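 Hammerhead (sTRSV) ribozyme switch libraries with a ligand aptamer grafted on stem I and a randomized N4-6 loop II, cloned into the 3' UTR of mCherry and transiently transfected into HEK293T cells; RNA-Seq 72 h post transfection with ligand added 1 h before transfection; RNA read count / plasmid DNA read count normalized to the non-cleaving sTRSVctl (x100), log10; sequences with >100 DNA reads. FACS-Seq: lentiviral library sorted into 6 bins after 48 h ligand, log-normal fit mean of mCherry/BFP scaled to controls. Printed sequences are partial switch sequences.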

[3] = variants of: B1; assay: FACS-Seq fitted mean relative fluorescence mCherry/BFP with ligand (log10 relative fluorescence); HEK293T overexpressing SLC46A1; ligand concentration (+) FACS-Seq: 6 mM; higher = higher reporter protein expression; details: with (6R,S)-folinic acid; ligand present: yes
In short: as §1

[4] = variants of: B1; assay: normalized RNA/DNA level with ligand (relative to sTRSVctl = 100) (log10 (% of sTRSVctl)); HEK293T overexpressing SLC46A1; ligand concentration (+) RNA-Seq: 6 mM; higher = less ribozyme self-cleavage, higher mRNA level; details: with (6R,S)-folinic acid; ligand present: yes
Method: as §2

| Variant | FACS-Seq fitted mean (log10) [1] | normalized RNA/DNA level without ligand (log10) [2] | FACS-Seq fitted mean (log10) [3] | normalized RNA/DNA level with ligand (log10) [4] |
| --- | --- | --- | --- | --- |
| UAUGAU | 0.263 ± 0.038 | 1.911 ± 0.013 | 0.486 ± 0.099 | 1.97 ± 0.027 |
| UAUGAG | 0.159 ± 0.026 | 1.609 ± 0.0041 | 0.709 ± 0.075 | 1.9 ± 0.045 |
| UAUGAC | 0.193 ± 0.17 | 1.971 ± 0.01 | 0.413 ± 0.083 | 2 ± 0.053 |
| ACAAAG | 0.424 ± 0.017 | 1.929 ± 0.019 | 0.459 ± 0.23 | 2.01 ± 0.042 |
| ACAAAC | 0.439 ± 0.018 | 2.03 ± 0.025 | 0.419 ± 0.038 | 2.02 ± 0.043 |
| AAUGCG | 0.217 ± 0.13 | 1.839 ± 0.018 | 0.405 ± 0.11 | 2 ± 0.03 |
| AAUGCA | 0.514 ± 0.0055 | 1.99 ± 0.03 | 0.45 ± 0.072 | 2.02 ± 0.034 |
| GCAAGA | 0.477 ± 0.0057 | 2.022 ± 0.0049 | 0.457 ± 0.12 | 2.04 ± 0.024 |
| GCAAGG | 0.437 ± 0.041 | 1.957 ± 0.007 | 0.376 ± 0.13 | 2.04 ± 0.049 |
| CAUUUG | 0.428 ± 0.042 | 2.05 ± 0.0064 | 0.431 ± 0.069 | 2.06 ± 0.025 |
| CAUUUU | 0.383 ± 0.084 | 1.982 ± 0.015 | 0.284 ± 0.047 | 1.99 ± 0.043 |
| GAUUAG | -0.00141 ± 0.0098 | 1.95 ± 0.0067 | -0.175 ± 0.038 | 2.005 ± 0.013 |
| GAUUAA | 0.2664 ± 0.0013 | 1.977 ± 0.0031 | 0.453 ± 0.16 | 2 ± 0.028 |
| GAUUAU | 0.371 ± 0.018 | 1.97 ± 0.013 | 0.305 ± 0.0094 | 1.992 ± 0.012 |
| AAUAUG | 0.207 ± 0.053 | 1.895 ± 0.0025 | 0.137 ± 0.061 | 1.99 ± 0.034 |
| AAUAUA | 0.602 ± 0.02 | 1.95 ± 0.0055 | 0.4362 ± 0.00063 | 1.99 ± 0.039 |
| AAUAUC | 0.448 ± 0.061 | 2.03 ± 0.042 | 0.348 ± 0.12 | 2.02 ± 0.048 |
| AAUAUU | 0.567 ± 0.082 | 1.981 ± 0.011 | 0.295 ± 0.01 | 1.99 ± 0.029 |
| UAUCCG | 0.17 ± 0.01 | 1.84 ± 0.017 | 0.376 ± 0.25 | 1.993 ± 0.019 |
| GAUAAA | 0.3694 ± 0.0011 | 1.956 ± 0.0085 | 0.397 ± 0.027 | 2 ± 0.034 |
| GAUAAU | 0.0792 ± 0.026 | 1.97 ± 0.02 | 0.23 ± 0.02 | 2.01 ± 0.037 |
| GAUAAC | 0.223 ± 0.036 | 1.972 ± 0.012 | 0.5 ± 0.022 | 2.01 ± 0.014 |
| UAUGCU | -0.0167 ± 0.051 | 2.007 ± 0.0048 | 0.129 ± 0.27 | 2.04 ± 0.029 |
| UAUGCG | 0.276 ± 0.043 | 1.7391 ± 0.00075 | 0.61 ± 0.063 | 1.961 ± 0.014 |

| Variant | FACS-Seq fitted mean (log10) [1] | normalized RNA/DNA level without ligand (log10) [2] | FACS-Seq fitted mean (log10) [3] | normalized RNA/DNA level with ligand (log10) [4] |
| --- | --- | --- | --- | --- |
| CAUUAC | 0.716 ± 0.11 | 1.984 ± 0.003 | 0.484 ± 0.06 | 1.98 ± 0.036 |
| CAUUAU | 0.4935 ± 0.0016 | 1.976 ± 0.011 | 0.36 ± 0.13 | 1.98 ± 0.056 |
| CAGUUA | 0.197 ± 0.022 | 1.95 ± 0.02 | 0.573 ± 0.13 | 1.99 ± 0.038 |
| CAGUUC | -0.0369 ± 0.035 | 2.027 ± 0.017 | -0.16 ± 0.081 | 1.983 ± 0.019 |
| AAUCGC | 0.375 ± 0.075 | 2.027 ± 0.017 | 0.448 ± 0.18 | 2.01 ± 0.029 |
| AAUCGG | 0.494 ± 0.13 | 1.94 ± 0.017 | 0.573 ± 0.06 | 2.01 ± 0.027 |
| AAUAAC | 0.221 ± 0.049 | 1.979 ± 0.0049 | 0.377 ± 0.048 | 1.99 ± 0.035 |
| AAUAAU | 0.5328 ± 0.0041 | 1.968 ± 0.0071 | 0.56 ± 0.14 | 2.003 ± 0.011 |
| AAUAAG | 0.271 ± 0.2 | 1.9 ± 0.024 | 0.323 ± 0.13 | 1.98 ± 0.038 |
| AAUAAA | -0.274 ± 0.037 | 1.971 ± 0.009 | -0.301 ± 0.1 | 2 ± 0.025 |
| UAGUUG | 0.194 ± 0.067 | 1.768 ± 0.016 | 0.229 ± 0.0032 | 1.96 ± 0.021 |
| AAUAGA | 0.354 ± 0.04 | 1.96 ± 0.024 | 0.344 ± 0.043 | 2.01 ± 0.034 |
| AAUAGG | 0.164 ± 0.037 | 1.877 ± 0.0074 | 0.334 ± 0.2 | 1.99 ± 0.028 |
| AAUAGU | 0.361 ± 0.12 | 1.928 ± 0.0047 | 0.623 ± 0.097 | 1.978 ± 0.018 |
| GAUAUA | 0.295 ± 0.015 | 1.96 ± 0.005 | 0.482 ± 0.11 | 2 ± 0.028 |
| GAUAUG | 0.0919 ± 0.075 | 1.919 ± 0.005 | 0.0285 ± 0.14 | 2 ± 0.038 |
| CAUCUC | 0.717 ± 0.072 | 2.111 ± 0.017 | 0.619 ± 0.56 | 2.08 ± 0.072 |
| UAUCAG | 0.285 ± 0.25 | 1.84 ± 0.024 | 0.328 ± 0.29 | 1.95 ± 0.025 |
| UAUCAU | 0.312 ± 0.043 | 1.954 ± 0.0086 | -0.0472 ± 0.12 | 1.99 ± 0.041 |
| UAUCAA | 0.142 ± 0.016 | 1.957 ± 0.019 | 0.277 ± 0.084 | 2 ± 0.053 |
| CAUAUG | 0.419 ± 0.028 | 2.026 ± 0.0042 | 0.496 ± 0.28 | 2.01 ± 0.023 |
| CAUAUU | 0.434 ± 0.11 | 1.982 ± 0.0059 | 0.246 ± 0.17 | 1.98 ± 0.025 |
| CAUAUC | -0.161 ± 0.056 | 2.078 ± 0.0032 | -0.426 ± 0.011 | 2.03 ± 0.034 |
| AAUGAG | 0.455 ± 0.051 | 1.778 ± 0.0047 | 0.7222 ± 0.0013 | 1.97 ± 0.021 |

| Variant | FACS-Seq fitted mean (log10) [1] | normalized RNA/DNA level without ligand (log10) [2] | FACS-Seq fitted mean (log10) [3] | normalized RNA/DNA level with ligand (log10) [4] |
| --- | --- | --- | --- | --- |
| AAUGAA | 0.442 ± 0.1 | 1.956 ± 0.0073 | 0.46 ± 0.055 | 2 ± 0.029 |
| UAUUGA | 0.265 ± 0.09 | 1.91 ± 0.025 | 0.57 ± 0.12 | 1.985 ± 0.003 |
| UAUUGG | -0.0117 ± 0.013 | 1.59 ± 0.037 | 0.338 ± 0.024 | 1.91 ± 0.034 |
| UAUACC | 0.255 ± 0.057 | 2.011 ± 0.0036 | 0.126 ± 0.21 | 2.018 ± 0.014 |
| UAUACG | 0.496 ± 0.089 | 1.76 ± 0.018 | 0.905 ± 0.26 | 1.96 ± 0.02 |
| UAUACU | 0.4 ± 0.2 | 1.9765 ± 0.0012 | 0.253 ± 0.07 | 1.99 ± 0.015 |
| AAUCAG | 0.0995 ± 0.041 | 1.969 ± 0.0032 | 0.228 ± 0.25 | 2.02 ± 0.045 |
| GAUUCU | 0.0461 ± 0.007 | 2.015 ± 0.0091 | -0.0821 ± 0.066 | 2.04 ± 0.042 |
| GAUUCA | 0.437 ± 0.14 | 1.985 ± 0.0095 | 0.333 ± 0.013 | 2.01 ± 0.025 |
| GAUGUU | 0.317 ± 0.026 | 1.976 ± 0.0069 | 0.463 ± 0.066 | 2.01 ± 0.031 |
| GAUGUG | 0.409 ± 0.09 | 1.889 ± 0.0086 | 0.576 ± 0.27 | 2.02 ± 0.021 |
| GAUGUC | 0.311 ± 0.066 | 2.021 ± 0.013 | 0.392 ± 0.21 | 1.991 ± 0.014 |
| GAUGUA | 0.1 ± 0.0045 | 1.937 ± 0.004 | 0.322 ± 0.11 | 2.001 ± 0.02 |
| GAUGAA | 0.212 ± 0.041 | 1.966 ± 0.012 | 0.37 ± 0.0079 | 1.989 ± 0.017 |
| GAUGAU | 0.196 ± 0.072 | 1.935 ± 0.019 | 0.199 ± 0.049 | 1.98 ± 0.034 |
| GAUGAC | 0.579 ± 0.11 | 1.95 ± 0.025 | 0.593 ± 0.085 | 2.01 ± 0.043 |
| GAUGAG | 0.483 ± 0.0054 | 1.858 ± 0.0066 | 0.624 ± 0.12 | 1.978 ± 0.015 |
| UCAAGC | 0.599 ± 0.019 | 2.071 ± 0.0039 | 0.553 ± 0.17 | 2.05 ± 0.04 |
| UCAAGA | 0.185 ± 0.046 | 1.9951 ± 0.0012 | 0.305 ± 0.13 | 2.028 ± 0.014 |
| ACAAUG | 0.173 ± 0.021 | 1.96 ± 0.02 | 0.372 ± 0.11 | 2.03 ± 0.033 |
| ACAAUA | 0.486 ± 0.011 | 1.981 ± 0.0063 | 0.509 ± 0.16 | 2.004 ± 0.02 |
| UCAAUG | 0.183 ± 0.076 | 1.814 ± 0.0085 | 0.195 ± 0.15 | 2 ± 0.037 |
| UAUUAG | -0.162 ± 0.24 | 1.781 ± 0.0025 | 0.0465 ± 0.094 | 1.98 ± 0.054 |
